Reference: article PMC11263391, “Molecular insights into degron recognition by CRL5^ASB7 ubiquitin ligase” (Nature Communications, 2024)

Target: ASB7-Elongin B-Elongin C ternary complex (human), Q9H672
Experiment: ITC; peptide (0.8–4 mM) titrated into the ASB7 complex (39–156 µM); 16 °C; 20 mM Tris-HCl pH 7.5, 150 mM NaCl; MicroCal PEAQ-ITC

ASB7-Elongin B-Elongin C ternary complex (human), Q9H672, sequence (Q9H672 11-318, chain 1 of 3): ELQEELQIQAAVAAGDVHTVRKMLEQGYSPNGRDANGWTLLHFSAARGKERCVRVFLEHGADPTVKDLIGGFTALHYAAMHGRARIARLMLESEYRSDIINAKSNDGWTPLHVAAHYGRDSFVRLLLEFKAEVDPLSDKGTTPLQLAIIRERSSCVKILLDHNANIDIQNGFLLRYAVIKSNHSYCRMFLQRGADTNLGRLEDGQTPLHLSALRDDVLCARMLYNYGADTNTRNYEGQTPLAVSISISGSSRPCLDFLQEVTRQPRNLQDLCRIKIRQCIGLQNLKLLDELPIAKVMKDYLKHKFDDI
ASB7-Elongin B-Elongin C ternary complex (human), Q9H672, sequence (Q15370 1-104, chain 2 of 3, further chain): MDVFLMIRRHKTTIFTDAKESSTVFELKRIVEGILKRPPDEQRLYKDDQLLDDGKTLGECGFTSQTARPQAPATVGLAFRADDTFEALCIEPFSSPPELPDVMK
ASB7-Elongin B-Elongin C ternary complex (human), Q9H672, sequence (Q15369 17-112, chain 3 of 3, further chain): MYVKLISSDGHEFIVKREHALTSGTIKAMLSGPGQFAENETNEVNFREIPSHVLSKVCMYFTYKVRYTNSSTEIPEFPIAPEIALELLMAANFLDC

Row | fold decrease in binding affinity against the LZTS1-degron [fold] | Kd [µM] | Binder
1 | 6 |  | ELESLMKEQDLLETKLR (modifications not checked) [LZTS1 17-residue degron]
2 |  | 3.8 | ELEKAKQECQDLKGKLEKCCRH (modifications not checked) [CEP152-degron 23-residue peptide]
